Experimental data taken from publication PMC3834253, “Attenuation of VEGFR-2 Expression by sFlt-1 and Low Oxygen in Human Placenta” (PLoS ONE, 2013).

Target: T1, Vascular endothelial growth factor receptor 2 (VEGFR-2) (human (endogenous in placenta), UniProt P35968 20-1356)
T1 construct: VEGF receptor-2 (VEGFR-2, also known as KDR), human, endogenous in placental tissue; precipitated with a monoclonal VEGFR-2 antibody (Cell Signaling Technology); Endogenous receptor in frozen placental tissue lysates; bait of the co-immunoprecipitation; also called VEGF receptor-2; KDR; source: endogenous, human placental tissue lysate
T1 sequence (P35968 20-1356): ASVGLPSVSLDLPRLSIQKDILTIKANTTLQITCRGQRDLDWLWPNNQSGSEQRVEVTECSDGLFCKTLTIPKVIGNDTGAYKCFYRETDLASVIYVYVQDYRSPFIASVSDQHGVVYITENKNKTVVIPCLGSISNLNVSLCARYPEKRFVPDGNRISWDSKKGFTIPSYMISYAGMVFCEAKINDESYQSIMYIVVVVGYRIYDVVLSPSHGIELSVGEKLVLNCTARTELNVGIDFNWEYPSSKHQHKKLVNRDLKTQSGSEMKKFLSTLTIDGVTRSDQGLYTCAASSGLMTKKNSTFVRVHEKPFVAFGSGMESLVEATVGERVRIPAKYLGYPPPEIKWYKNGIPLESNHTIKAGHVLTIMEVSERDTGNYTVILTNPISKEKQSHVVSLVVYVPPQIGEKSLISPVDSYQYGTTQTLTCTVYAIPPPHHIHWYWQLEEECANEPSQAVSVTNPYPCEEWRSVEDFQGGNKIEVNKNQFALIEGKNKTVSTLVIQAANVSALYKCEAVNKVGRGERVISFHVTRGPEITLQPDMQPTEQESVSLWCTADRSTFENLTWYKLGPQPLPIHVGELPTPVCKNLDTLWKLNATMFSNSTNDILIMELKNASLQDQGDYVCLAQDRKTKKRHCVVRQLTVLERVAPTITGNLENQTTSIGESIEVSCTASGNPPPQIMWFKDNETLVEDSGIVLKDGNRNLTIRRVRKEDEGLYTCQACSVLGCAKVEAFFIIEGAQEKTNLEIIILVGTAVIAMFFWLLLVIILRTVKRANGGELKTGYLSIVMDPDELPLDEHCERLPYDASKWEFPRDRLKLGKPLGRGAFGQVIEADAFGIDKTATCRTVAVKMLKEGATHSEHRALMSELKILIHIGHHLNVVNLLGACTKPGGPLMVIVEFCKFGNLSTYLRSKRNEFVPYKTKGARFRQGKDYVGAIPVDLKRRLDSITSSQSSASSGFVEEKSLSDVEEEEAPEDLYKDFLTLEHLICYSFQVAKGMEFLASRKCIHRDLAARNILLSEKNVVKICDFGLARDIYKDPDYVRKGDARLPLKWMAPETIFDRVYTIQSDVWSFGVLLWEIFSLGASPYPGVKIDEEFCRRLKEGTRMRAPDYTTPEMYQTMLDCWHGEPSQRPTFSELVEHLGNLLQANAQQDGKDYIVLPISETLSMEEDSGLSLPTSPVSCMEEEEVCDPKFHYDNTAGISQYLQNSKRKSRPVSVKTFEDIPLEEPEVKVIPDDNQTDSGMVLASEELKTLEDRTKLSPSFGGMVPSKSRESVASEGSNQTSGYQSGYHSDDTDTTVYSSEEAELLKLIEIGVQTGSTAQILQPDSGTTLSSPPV
Assay: co-IP; human placental tissue lysates (8, 12 and 35 weeks of gestation; preeclamptic placentae), 500 ug protein, precleared with Protein-A Agarose, precipitated with 1 ug monoclonal VEGFR-2 antibody overnight at 4 C, washed 3 times in ice cold RIPA buffer, blotted for sFlt-1
Conditions: partners not purified

B1: soluble VEGF receptor-1 (sFlt-1), 105 kDa species (sFlt-13) (natural protein, human (endogenous in placenta), UniProt P17948-2 27-687, looked up)
chain: SKLKDPELSLKGTQHIMQAGQTLHLQCRGEAAHKWSLPEMVSKESERLSITKSACGRNGKQFCSTLTLNTAQANHTGFYSCKYLAVPTSKKKETESAIYIFISDTGRPFVEMYSEIPEIIHMTEGRELVIPCRVTSPNITVTLKKFPLDTLIPDGKRIIWDSRKGFIISNATYKEIGLLTCEATVNGHLYKTNYLTHRQTNTIIDVQISTPRPVKLLRGHTLVLNCTATTPLNTRVQMTWSYPDEKNKRASVRRRIDQSNSHANIFYSVLTIDKMQNKDKGLYTCRVRSGPSFKSVNTSVHIYDKAFITVKHRKQQVLETVAGKRSYRLSMKVKAFPSPEVVWLKDGLPATEKSARYLTRGYSLIIKDVTEEDAGNYTILLSIKQSNVFKNLTATLIVNVKPQIYEKAVSSFPDPALYPLGSRQILTCTAYGIPQPTIKWFWHPCNHNHSEARCDFCSNNEESFILDADSNMGNRIESITQRMAIIEGKNKMASTLVVADSRISGIYICIASNKVGTVGRNISFYITDVPNGFHVNLEKMPTEGEDLKLSCTVNKFLYRDVTWILLRTVNNRTMHYSISKQKMAITKEHSITLNLTIMNVSLQDSGTYACRARNVYTGEEILQKKEITIRGEHCNKKAVFSRISKFKSTRNDCTTQSNVKH
notes: sFlt-1, truncated soluble splice variant of VEGFR-1 (six extracellular IgG like domains with a unique C-terminus), human; isoform assigned by the authors from the band size; Detected by blot with an sFlt-1 antibody (AF321, R&D Systems) in VEGFR-2 immunoprecipitates; also called soluble VEGFR-1; source: endogenous, human placental tissue lysate
fold co-immunoprecipitated sFlt-1 (densitometry), PE over PTC placentae: 5.98 fold
